These results are taken from paper PMC9023255, “Mechanisms of substrate recognition and N6-methyladenosine demethylation revealed by crystal structures of ALKBH5–RNA complexes”.

For the data set, the target named is ALKBH5 74-292 (human, UniProt Q6P6C2 74-292). Nature of the data set: X-ray crystallography; Mn2+, sulfate in 2OG site (NOG added but not observed); 2.1 A, P32; GG(m6A)C ordered; Complex formation: 25 mM Tris pH 7.5, 400 uM protein, 333 uM RNA, 2 mM MnCl2, 2 or 10 mM NOG or 10 mM 2OG, on ice 30 min, then SEC in 25 mM Tris pH 7.5; mutant. Particulars: protein: recombinant; tags: N-terminal His6, removed by TEV protease; single strand.
Chain of ALKBH5 74-292 (Q6P6C2 74-292): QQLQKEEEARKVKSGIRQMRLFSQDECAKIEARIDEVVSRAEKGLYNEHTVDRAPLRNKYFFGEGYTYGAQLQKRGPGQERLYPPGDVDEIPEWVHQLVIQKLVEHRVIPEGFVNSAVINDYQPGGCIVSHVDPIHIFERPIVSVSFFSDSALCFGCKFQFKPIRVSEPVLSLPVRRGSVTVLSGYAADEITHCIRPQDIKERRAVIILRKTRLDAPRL

On to UGGACUGC (ssRNA, N6-methyladenosine at position 4 (m6A)) [8-mer m6A ssRNA], for which the binding result was “binds”.
